Experimental data taken from publication PMC11982978, “Cancer hotspot mutations rewire ERK2 specificity by selective exclusion of docking interactions” (The Journal of Biological Chemistry, 2025).
Where two headings read alike, the source gives them in different places. Each block holds one substance with its values, some of them ahead of it.

Experiments:
[1] = target: Active phosphorylated His6-tagged ERK2 R133K (rat (p-0033 says mouse)) (UniProt P63086)
[2] = target: Active phosphorylated His6-tagged ERK2 E320K (rat (p-0033 says mouse)) (UniProt P63086)
[3] = target: Active phosphorylated His6-tagged ERK2 WT (rat (p-0033 says mouse)) (UniProt P63086)
[4] = target: Active phosphorylated His6-tagged ERK2 D319N (rat (p-0033 says mouse)) (UniProt P63086)
[5] = target: Active phosphorylated His6-tagged ERK2 WT (rat (p-0033 says mouse)) (UniProt P63086); remark: listed apart in the source
[6] = target: Active phosphorylated His6-tagged ERK2 E320K (rat (p-0033 says mouse)) (UniProt P63086); remark: listed apart in the source
[7] = target: Active phosphorylated His6-tagged ERK2 D319N (rat (p-0033 says mouse)) (UniProt P63086); remark: listed apart in the source
[8] = target: Active phosphorylated His6-tagged ERK2 R133K (rat (p-0033 says mouse)) (UniProt P63086); remark: listed apart in the source
[9] = target: Active phosphorylated His6-tagged ERK2 WT (rat (p-0033 says mouse)) (UniProt P63086); remark: listed apart in the source
[10] = target: Active phosphorylated His6-tagged ERK2 R133K (rat (p-0033 says mouse)) (UniProt P63086); remark: listed apart in the source
[11] = target: Active phosphorylated His6-tagged ERK2 D319N (rat (p-0033 says mouse)) (UniProt P63086); remark: listed apart in the source
[12] = target: Active phosphorylated His6-tagged ERK2 E320K (rat (p-0033 says mouse)) (UniProt P63086); remark: listed apart in the source
[13] = target: Active phosphorylated His6-tagged ERK2 E320K (rat (p-0033 says mouse)) (UniProt P63086); remark: listed apart in the source
[14] = target: Active phosphorylated His6-tagged ERK2 R133K (rat (p-0033 says mouse)) (UniProt P63086); remark: listed apart in the source
[15] = target: Active phosphorylated His6-tagged ERK2 D319N (rat (p-0033 says mouse)) (UniProt P63086); remark: listed apart in the source
[16] = target: Active phosphorylated His6-tagged ERK2 WT (rat (p-0033 says mouse)) (UniProt P63086); remark: listed apart in the source
[17] = target: Active phosphorylated His6-tagged ERK2 D319N (rat (p-0033 says mouse)) (UniProt P63086); remark: listed apart in the source
[18] = target: Active phosphorylated His6-tagged ERK2 E320K (rat (p-0033 says mouse)) (UniProt P63086); remark: listed apart in the source
[19] = target: Active phosphorylated His6-tagged ERK2 R133K (rat (p-0033 says mouse)) (UniProt P63086); remark: listed apart in the source
[20] = target: Active phosphorylated His6-tagged ERK2 WT (rat (p-0033 says mouse)) (UniProt P63086); remark: listed apart in the source
[21] = target: Active phosphorylated His6-tagged ERK2 WT (rat (p-0033 says mouse)) (UniProt P63086); remark: listed apart in the source
[22] = target: Active phosphorylated His6-tagged ERK2 R133K (rat (p-0033 says mouse)) (UniProt P63086); remark: listed apart in the source
[23] = target: Active phosphorylated His6-tagged ERK2 D319N (rat (p-0033 says mouse)) (UniProt P63086); remark: listed apart in the source
[24] = target: Active phosphorylated His6-tagged ERK2 WT (rat (p-0033 says mouse)) (UniProt P63086); remark: listed apart in the source
[25] = target: Active phosphorylated His6-tagged ERK2 E320K (rat (p-0033 says mouse)) (UniProt P63086); remark: listed apart in the source
[26] = target: Active phosphorylated His6-tagged ERK2 R133K (rat (p-0033 says mouse)) (UniProt P63086); remark: listed apart in the source

Substance: DISC1
- IC50 [5]: 23 µM
- IC50 [6]: 110 µM
- IC50 [7]: 79 µM
- IC50 [8]: 74 µM

Substance: AEBP1
- IC50 [13]: 160 µM
- IC50 [14]: 110 µM
- IC50 [15]: 120 µM
- IC50 [16]: 16 µM

Substance: ANAPC5
- IC50 [21]: 32 µM
- IC50 [22]: 340 µM

Substance: CBX7
- IC50 [23]: 9.8 µM
- IC50 [24]: 5.1 µM
- IC50 [25]: 14 µM
- IC50 [26]: 5.7 µM

Second part, the substance after the results:

- IC50 [1]: 23 µM
- IC50 [2]: 28 µM
- IC50 [3]: 18 µM
- IC50 [4]: 26 µM
Substance: MLXIPL

- IC50 [9]: 24 µM
- IC50 [10]: 27 µM
- IC50 [11]: 30 µM
- IC50 [12]: 40 µM
Substance: ELMSAN1

- IC50 [17]: 23 µM
- IC50 [18]: 56 µM
- IC50 [19]: 6.2 µM
- IC50 [20]: 6.8 µM
Substance: ZBED6
